# Laboratory results taken from the supplement of paper PMC6757056.
# ± gives the standard deviation of the averaged measurements.
# B1: library; a variant is named by its letters at N, in order (parent)
# chain: GCUGUCACCGGUGUAUUACCCUAGUGGUCGACCGGUCUGAUGAGUCUNNNNNNAGACGAAACAGC
# Experiments:
# [1] = variants of: B1; experiment: normalized RNA/DNA level with ligand (relative to sTRSVctl = 100) (log10 (% of sTRSVctl)); ligand: hypoxanthine (xanthine aptamer); higher = less ribozyme self-cleavage, higher mRNA level; settings: ligand concentration (+) RNA-Seq: 5 mM, HEK293T, reporter: mCherry (pCS4076), ligand present: yes
# Method in brief: (§1)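 Ribozyme switch library plasmids linked to reporters were introduced into HEK293T cells at 4 µg per 6-well well, with ligand, if any, added 1 h before. Total RNA was extracted with EDTA 72 h later, reverse-transcribed, amplified, barcoded and sequenced. RNA level was computed from RNA over DNA reads relative to a spiked-in non-cleaving sequence or the top sequences, then scaled and log-transformed. The top set was 25 sequences, values were ×100 and log10, and the cutoff was ≥100 DNA reads.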
# [2] = variants of: B1; experiment: normalized RNA/DNA level without ligand (relative to sTRSVctl = 100) (log10 (% of sTRSVctl)); ligand: hypoxanthine (xanthine aptamer); higher = less ribozyme self-cleavage, higher mRNA level; settings: HEK293T, reporter: mCherry (pCS4076), ligand present: no
# Method in brief: as §1
Variant,normalized RNA/DNA level with ligand (log10) [1],normalized RNA/DNA level without ligand (log10) [2]
GCUGUCACCGGUGUAUUACCCUAGUGGUCGACCGGUCUGAUGAGUCUGUCUCAAGACGAAACAGC [GUCUCA],1.965 ± 0.019,1.943 ± 0.0073
GCUGUCACCGGUGUAUUACCCUAGUGGUCGACCGGUCUGAUGAGUCUGUCUCCAGACGAAACAGC [GUCUCC],1.99 ± 0.047,1.94 ± 0.084
GCUGUCACCGGUGUAUUACCCUAGUGGUCGACCGGUCUGAUGAGUCUCUCGUGAGACGAAACAGC [CUCGUG],1.94 ± 0.028,1.81 ± 0.025
GCUGUCACCGGUGUAUUACCCUAGUGGUCGACCGGUCUGAUGAGUCUCUCGUUAGACGAAACAGC [CUCGUU],1.94 ± 0.019,2.03 ± 0.063
GCUGUCACCGGUGUAUUACCCUAGUGGUCGACCGGUCUGAUGAGUCUCUCGUAAGACGAAACAGC [CUCGUA],1.91 ± 0.02,1.907 ± 0.015
GCUGUCACCGGUGUAUUACCCUAGUGGUCGACCGGUCUGAUGAGUCUUUCUACAGACGAAACAGC [UUCUAC],1.87 ± 0.041,1.89 ± 0.085
GCUGUCACCGGUGUAUUACCCUAGUGGUCGACCGGUCUGAUGAGUCUUUCUAUAGACGAAACAGC [UUCUAU],1.95 ± 0.047,1.867 ± 0.016
GCUGUCACCGGUGUAUUACCCUAGUGGUCGACCGGUCUGAUGAGUCUUUCUAGAGACGAAACAGC [UUCUAG],1.936 ± 0.0068,1.67 ± 0.059
GCUGUCACCGGUGUAUUACCCUAGUGGUCGACCGGUCUGAUGAGUCUCUCUCUAGACGAAACAGC [CUCUCU],1.89 ± 0.034,1.904 ± 0.012
GCUGUCACCGGUGUAUUACCCUAGUGGUCGACCGGUCUGAUGAGUCUCUCUCAAGACGAAACAGC [CUCUCA],1.96 ± 0.0068,1.91 ± 0.027
GCUGUCACCGGUGUAUUACCCUAGUGGUCGACCGGUCUGAUGAGUCUAUCGGUAGACGAAACAGC [AUCGGU],1.91 ± 0.02,1.6043 ± 0.0014
GCUGUCACCGGUGUAUUACCCUAGUGGUCGACCGGUCUGAUGAGUCUAUCGGGAGACGAAACAGC [AUCGGG],1.889 ± 0.0042,1.52 ± 0.06
GCUGUCACCGGUGUAUUACCCUAGUGGUCGACCGGUCUGAUGAGUCUUUCUCUAGACGAAACAGC [UUCUCU],1.99 ± 0.084,1.89 ± 0.051
GCUGUCACCGGUGUAUUACCCUAGUGGUCGACCGGUCUGAUGAGUCUUUCUCCAGACGAAACAGC [UUCUCC],1.97 ± 0.072,1.99 ± 0.082
GCUGUCACCGGUGUAUUACCCUAGUGGUCGACCGGUCUGAUGAGUCUUUCUCAAGACGAAACAGC [UUCUCA],1.98 ± 0.033,1.918 ± 0.013
GCUGUCACCGGUGUAUUACCCUAGUGGUCGACCGGUCUGAUGAGUCUAUCUAGAGACGAAACAGC [AUCUAG],1.91 ± 0.033,1.61 ± 0.019
GCUGUCACCGGUGUAUUACCCUAGUGGUCGACCGGUCUGAUGAGUCUAUCUAUAGACGAAACAGC [AUCUAU],1.93 ± 0.032,1.83 ± 0.074
GCUGUCACCGGUGUAUUACCCUAGUGGUCGACCGGUCUGAUGAGUCUAUCUACAGACGAAACAGC [AUCUAC],1.9 ± 0.12,1.855 ± 0.013
GCUGUCACCGGUGUAUUACCCUAGUGGUCGACCGGUCUGAUGAGUCUGUCGUGAGACGAAACAGC [GUCGUG],1.86 ± 0.043,1.37 ± 0.018
GCUGUCACCGGUGUAUUACCCUAGUGGUCGACCGGUCUGAUGAGUCUGUCGUCAGACGAAACAGC [GUCGUC],2.03 ± 0.088,1.93 ± 0.058
GCUGUCACCGGUGUAUUACCCUAGUGGUCGACCGGUCUGAUGAGUCUGUCGUAAGACGAAACAGC [GUCGUA],1.91 ± 0.088,1.79 ± 0.073

Variant,normalized RNA/DNA level with ligand (log10) [1],normalized RNA/DNA level without ligand (log10) [2]
GCUGUCACCGGUGUAUUACCCUAGUGGUCGACCGGUCUGAUGAGUCUGUCGUUAGACGAAACAGC [GUCGUU],1.97 ± 0.057,1.89 ± 0.032
GCUGUCACCGGUGUAUUACCCUAGUGGUCGACCGGUCUGAUGAGUCUAUCGUCAGACGAAACAGC [AUCGUC],2.03 ± 0.048,1.977 ± 0.0058
GCUGUCACCGGUGUAUUACCCUAGUGGUCGACCGGUCUGAUGAGUCUAUCGUAAGACGAAACAGC [AUCGUA],1.898 ± 0.017,1.74 ± 0.024
GCUGUCACCGGUGUAUUACCCUAGUGGUCGACCGGUCUGAUGAGUCUAUCGUUAGACGAAACAGC [AUCGUU],1.98 ± 0.08,1.87 ± 0.043
GCUGUCACCGGUGUAUUACCCUAGUGGUCGACCGGUCUGAUGAGUCUAUCGUGAGACGAAACAGC [AUCGUG],1.82 ± 0.047,1.4 ± 0.076
GCUGUCACCGGUGUAUUACCCUAGUGGUCGACCGGUCUGAUGAGUCUGUCUACAGACGAAACAGC [GUCUAC],1.94 ± 0.043,1.8 ± 0.018
GCUGUCACCGGUGUAUUACCCUAGUGGUCGACCGGUCUGAUGAGUCUGUCUAUAGACGAAACAGC [GUCUAU],1.94 ± 0.059,1.82 ± 0.026
GCUGUCACCGGUGUAUUACCCUAGUGGUCGACCGGUCUGAUGAGUCUUUCGGGAGACGAAACAGC [UUCGGG],1.95 ± 0.044,1.73 ± 0.027
GCUGUCACCGGUGUAUUACCCUAGUGGUCGACCGGUCUGAUGAGUCUCUCUGAAGACGAAACAGC [CUCUGA],1.96 ± 0.047,1.944 ± 0.009
GCUGUCACCGGUGUAUUACCCUAGUGGUCGACCGGUCUGAUGAGUCUUUCGUUAGACGAAACAGC [UUCGUU],1.94 ± 0.11,1.84 ± 0.054
GCUGUCACCGGUGUAUUACCCUAGUGGUCGACCGGUCUGAUGAGUCUUUCGUGAGACGAAACAGC [UUCGUG],1.964 ± 0.019,1.7 ± 0.041
GCUGUCACCGGUGUAUUACCCUAGUGGUCGACCGGUCUGAUGAGUCUUUCGUCAGACGAAACAGC [UUCGUC],2.0298 ± 0.00024,2.03 ± 0.041
GCUGUCACCGGUGUAUUACCCUAGUGGUCGACCGGUCUGAUGAGUCUAUCUCUAGACGAAACAGC [AUCUCU],1.99 ± 0.075,1.937 ± 0.0021
GCUGUCACCGGUGUAUUACCCUAGUGGUCGACCGGUCUGAUGAGUCUAUCUCAAGACGAAACAGC [AUCUCA],1.96 ± 0.071,1.89 ± 0.043
GCUGUCACCGGUGUAUUACCCUAGUGGUCGACCGGUCUGAUGAGUCUAUCUCCAGACGAAACAGC [AUCUCC],1.97 ± 0.039,1.9 ± 0.058
GCUGUCACCGGUGUAUUACCCUAGUGGUCGACCGGUCUGAUGAGUCUAUCUCGAGACGAAACAGC [AUCUCG],1.89 ± 0.024,1.59 ± 0.06
GCUGUCACCGGUGUAUUACCCUAGUGGUCGACCGGUCUGAUGAGUCUGUCGGUAGACGAAACAGC [GUCGGU],1.91 ± 0.051,1.83 ± 0.035
GCUGUCACCGGUGUAUUACCCUAGUGGUCGACCGGUCUGAUGAGUCUCUCUAGAGACGAAACAGC [CUCUAG],1.9 ± 0.0079,1.78 ± 0.011
GCUGUCACCGGUGUAUUACCCUAGUGGUCGACCGGUCUGAUGAGUCUCUCUAUAGACGAAACAGC [CUCUAU],2.03 ± 0.035,1.848 ± 0.0086
GCUGUCACCGGUGUAUUACCCUAGUGGUCGACCGGUCUGAUGAGUCUCUCUAAAGACGAAACAGC [CUCUAA],1.93 ± 0.051,1.8 ± 0.054
GCUGUCACCGGUGUAUUACCCUAGUGGUCGACCGGUCUGAUGAGUCUCUCUACAGACGAAACAGC [CUCUAC],1.966 ± 0.013,1.87 ± 0.019
